EP2985295A1 (Calypso Biotech SA, dated 2016)
Where a chain is given by its changes, count along the chain named.

B1: G03-VH-GL / G06-VL-GL1 (antibody, V domains shown)
VH: EVQLVQSGAEVKKPGASVKVSCKASGYTFTSYGISWVRQAPGQGLEWMGWISAYNGNTNYAQKLQGRVTMTTDTSTSTAYMELRSLRSDDTAVYYCARDYYGMDVWGQGTTVTVSS
VL: QAVLTQPPSASGTPGQRVTISCSGSTFNIGSNTVNWYQQLPGTAPKLLIYSDSHRPSGVPDRFSGSNSWNTASLAISGLQSEDEADYYCQAWDSSAVVFGGGTKVTVLG
B2: G03-VH-GL-V1-V9 / G06-VL-GL1 (antibody, V domains shown)
VH: B1 VH with W50Y, G56A
VL: B1 VL
B3: G03-VH-GL-V1 / G06-VL-GL1 (antibody, V domains shown)
VH: B1 VH with W50Y
VL: B1 VL

Molecular target: Human MMP9 (i.e. activated MMP9) (human, UniProt P14780 107-707)
Assay: cell-based or functional assay

Sequence of Human MMP9 (i.e. activated MMP9) (P14780 107-707): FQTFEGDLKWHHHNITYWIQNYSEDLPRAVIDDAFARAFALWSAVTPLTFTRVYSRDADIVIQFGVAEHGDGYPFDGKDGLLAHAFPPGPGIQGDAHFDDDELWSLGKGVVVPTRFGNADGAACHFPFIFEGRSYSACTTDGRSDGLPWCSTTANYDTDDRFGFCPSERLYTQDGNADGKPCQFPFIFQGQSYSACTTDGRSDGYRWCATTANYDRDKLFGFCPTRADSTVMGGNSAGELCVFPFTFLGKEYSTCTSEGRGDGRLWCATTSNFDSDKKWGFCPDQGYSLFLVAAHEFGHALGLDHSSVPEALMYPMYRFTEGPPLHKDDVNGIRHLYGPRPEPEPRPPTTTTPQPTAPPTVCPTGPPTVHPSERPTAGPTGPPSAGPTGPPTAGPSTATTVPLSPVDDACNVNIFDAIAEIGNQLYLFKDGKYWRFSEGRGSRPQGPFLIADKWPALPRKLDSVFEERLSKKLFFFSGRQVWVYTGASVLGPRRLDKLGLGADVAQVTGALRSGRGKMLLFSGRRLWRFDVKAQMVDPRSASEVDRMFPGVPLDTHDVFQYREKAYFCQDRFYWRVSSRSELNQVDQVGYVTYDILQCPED

Binder | Efficiency, neutralization of catalytic activity on DQ-gelatin (MMP9 assay) [%] | IC50 (nM), neutralization of catalytic activity on DQ-gelatin (MMP9 assay) [nM]
B1 | 50 | 0.13
B2 | 50 | 0.11
B3 | 50 | 0.06

Molecular target: Human proMMP9 (human, UniProt P14780 20-707)
Assay: cell-based or functional assay

Sequence of Human proMMP9 (P14780 20-707): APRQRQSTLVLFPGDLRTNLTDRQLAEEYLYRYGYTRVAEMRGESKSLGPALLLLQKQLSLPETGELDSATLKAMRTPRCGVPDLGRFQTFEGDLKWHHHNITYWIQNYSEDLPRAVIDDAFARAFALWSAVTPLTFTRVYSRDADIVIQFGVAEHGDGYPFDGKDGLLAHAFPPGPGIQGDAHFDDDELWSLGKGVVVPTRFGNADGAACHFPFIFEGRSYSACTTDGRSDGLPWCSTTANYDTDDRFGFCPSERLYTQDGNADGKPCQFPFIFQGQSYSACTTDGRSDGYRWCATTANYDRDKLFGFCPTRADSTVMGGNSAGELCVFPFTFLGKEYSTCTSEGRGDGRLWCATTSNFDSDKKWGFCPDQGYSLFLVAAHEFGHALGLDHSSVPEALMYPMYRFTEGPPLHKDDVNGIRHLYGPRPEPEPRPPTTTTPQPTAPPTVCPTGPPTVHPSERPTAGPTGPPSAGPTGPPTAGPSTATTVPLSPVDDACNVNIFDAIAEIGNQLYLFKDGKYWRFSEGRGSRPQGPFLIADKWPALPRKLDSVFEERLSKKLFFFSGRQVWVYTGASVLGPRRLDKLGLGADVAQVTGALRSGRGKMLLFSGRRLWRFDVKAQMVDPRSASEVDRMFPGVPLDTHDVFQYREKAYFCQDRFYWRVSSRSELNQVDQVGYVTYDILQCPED

Binder | Efficiency, neutralization of proMMP9 processing and/or downstream catalytic activity on DQ-gelatin (MMP3/MMP9 assay) [%] | IC50 (nM), neutralization of proMMP9 processing and/or downstream catalytic activity on DQ-gelatin (MMP3/MMP9 assay) [nM]
B1 | 100 | 0.21
B2 | 100 | 0.21
B3 | 100 | 0.19

Molecular target: Cyno proMMP9 (Cynomologus monkey)
Assay: cell-based or functional assay

Binder | Efficiency, neutralization of processing of cyno MMP9 and/or its catalytic activity on gelatin (MMP3/MMP9 assay) [%] | IC50 (nM), neutralization of processing of cyno MMP9 and/or its catalytic activity on gelatin (MMP3/MMP9 assay) [nM]
B1 | 100 | 0.04
B2 | 100 | 0.14
B3 | 100 | 0.03

Molecular target: rat proMMP9 (rat, UniProt P50282 20-708)
Assay: cell-based or functional assay

Sequence of rat proMMP9 (P50282 20-708): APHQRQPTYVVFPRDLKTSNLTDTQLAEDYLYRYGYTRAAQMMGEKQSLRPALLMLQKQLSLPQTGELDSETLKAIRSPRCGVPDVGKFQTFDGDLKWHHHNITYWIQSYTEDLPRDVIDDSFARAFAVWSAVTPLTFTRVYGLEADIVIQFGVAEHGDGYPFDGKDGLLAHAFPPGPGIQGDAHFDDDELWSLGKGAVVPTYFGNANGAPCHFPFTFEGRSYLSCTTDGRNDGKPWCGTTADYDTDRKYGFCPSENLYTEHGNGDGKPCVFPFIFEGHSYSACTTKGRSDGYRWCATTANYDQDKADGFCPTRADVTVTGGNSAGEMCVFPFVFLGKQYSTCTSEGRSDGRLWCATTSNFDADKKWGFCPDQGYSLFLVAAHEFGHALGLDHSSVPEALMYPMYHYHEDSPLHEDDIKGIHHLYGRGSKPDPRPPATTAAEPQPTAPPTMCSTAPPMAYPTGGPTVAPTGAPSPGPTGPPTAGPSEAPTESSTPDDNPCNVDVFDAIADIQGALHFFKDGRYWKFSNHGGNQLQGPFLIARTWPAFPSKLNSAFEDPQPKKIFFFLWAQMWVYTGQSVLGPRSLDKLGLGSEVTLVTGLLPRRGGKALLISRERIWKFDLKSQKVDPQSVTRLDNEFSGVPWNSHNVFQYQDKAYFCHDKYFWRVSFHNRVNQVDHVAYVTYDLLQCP

Binder | Efficiency, neutralization of processing of rat MMP9 and/or its catalytic activity on gelatin (MMP3/MMP9 assay) [%] | IC50 (nM), neutralization of processing of rat MMP9 and/or its catalytic activity on gelatin (MMP3/MMP9 assay) [nM]
B1 | 100 | 64.7
B2 | 100 | 93.6
B3 | 100 | 19

Molecular target: mouse proMMP9 (mouse, UniProt P41245 20-730)
Assay: cell-based or functional assay

Sequence of mouse proMMP9 (P41245 20-730): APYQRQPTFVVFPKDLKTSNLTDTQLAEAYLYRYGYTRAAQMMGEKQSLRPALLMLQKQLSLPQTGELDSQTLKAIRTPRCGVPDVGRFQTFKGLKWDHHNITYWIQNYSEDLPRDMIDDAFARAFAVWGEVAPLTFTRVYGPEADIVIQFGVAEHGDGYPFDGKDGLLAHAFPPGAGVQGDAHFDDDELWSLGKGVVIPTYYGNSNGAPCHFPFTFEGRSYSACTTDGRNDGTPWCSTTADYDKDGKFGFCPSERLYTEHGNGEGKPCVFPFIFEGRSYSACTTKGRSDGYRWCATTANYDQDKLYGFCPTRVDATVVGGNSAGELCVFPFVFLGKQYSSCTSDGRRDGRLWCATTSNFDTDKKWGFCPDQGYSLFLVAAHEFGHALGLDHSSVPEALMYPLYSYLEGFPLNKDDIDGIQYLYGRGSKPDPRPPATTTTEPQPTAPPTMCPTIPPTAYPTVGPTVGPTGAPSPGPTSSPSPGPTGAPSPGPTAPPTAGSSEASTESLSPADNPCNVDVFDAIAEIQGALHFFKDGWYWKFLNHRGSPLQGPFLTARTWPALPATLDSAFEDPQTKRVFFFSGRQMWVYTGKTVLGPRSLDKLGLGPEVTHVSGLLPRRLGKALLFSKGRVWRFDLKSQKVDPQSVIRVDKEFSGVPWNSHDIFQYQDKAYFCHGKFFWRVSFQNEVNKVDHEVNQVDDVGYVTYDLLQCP

Binder | Efficiency, neutralization of processing of mouse MMP9 and/or its catalytic activity on gelatin (MMP3/MMP9 assay) [%] | IC50 (nM), neutralization of processing of mouse MMP9 and/or its catalytic activity on gelatin (MMP3/MMP9 assay) [nM]
B1 | 30 | 151
B2 | 25 | 12.6
B3 | 25 | 16.4
